Residue numbers refer to the chain shown, from its start.
B1: 3F11-var 6 (antibody, human IgG1, kappa, V domains shown)
VH: QVQLVQSGAEVKKPGASVKVSCKASGYTFTYFDINWLRQAPGQGLEWMGGISPGDGNTNYAQKFQGRVTLTIDTSTSTAYMELSSLRSEDTAVYYCARDGNFPYYAMDSWGQGTLVTVSS
VL: DIVMTQSPLSLPVTPGEPASISCRSSQSLVHSNGQTYLHWYLQKPGQSPQLLIYTVSNRFSGVPDRFSGSGSGTDFTLKISRVEAEDVGVYYCSQSTHVPTFGGGTKVEIKR
notes: Expressed from pXC-IgG1zadeltaK and pXC-Kappa vectors
B2: 3F11-var 2 (antibody, human IgG1, kappa, V domains shown)
VH: B1 VH
VL: B1 VL with Q35N, Y41F, Y92F
notes: as for B1
B3: 3F11-var 3 (antibody, human IgG1, kappa, V domains shown)
VH: B1 VH with T58V
VL: B1 VL with Q35N, Y41F, Y92F
notes: as for B1
B4: 3F11-var 7 (antibody, human IgG1, kappa, V domains shown)
VH: B1 VH with T58V
VL: B1 VL
notes: as for B1
B5: 3F11-var 12 (antibody, human IgG1, kappa, V domains shown)
VH: B1 VH with G56S, T58V
VL: B1 VL with N33S
notes: as for B1
B6: 3F11-var 13 (antibody, human IgG1, kappa, V domains shown)
VH: B1 VH with A61N, Q62E, K63N, Q65K, T74K, Y95F
VL: B1 VL with N33S, L42Q, F60A, V90T
notes: as for B1
B7: 3F11-var 1 (antibody, human IgG1, kappa, V domains shown)
VH: B1 VH with A61N, Q62E, K63N, Q65K, T74K, Y95F
VL: B1 VL with Q35N, Y41F, Y92F
notes: as for B1
B8: 3F11-var 9 (antibody, human IgG1, kappa, V domains shown)
VH: B1 VH with A61N, Q62E, K63N, Q65K, T74K, Y95F
VL: B1 VL with N33S
notes: as for B1
B9: 3F11-var 10 (antibody, human IgG1, kappa, V domains shown)
VH: B1 VH
VL: B1 VL with N33S
notes: as for B1
B10: 3F11-var 11 (antibody, human IgG1, kappa, V domains shown)
VH: B1 VH with T58V
VL: B1 VL with N33S
notes: as for B1
B11: 3F11-var 15 (antibody, human IgG1, kappa, V domains shown)
VH: B1 VH with T58V
VL: B1 VL with N33S, L42Q, F60A, V90T
notes: as for B1
B12: 3F11-var 4 (antibody, human IgG1, kappa, V domains shown)
VH: B1 VH with G56S, T58V
VL: B1 VL with Q35N, Y41F, Y92F
notes: as for B1
B13: 3F11-var 5 (antibody, human IgG1, kappa, V domains shown)
VH: B1 VH with A61N, Q62E, K63N, Q65K, T74K, Y95F
VL: B1 VL
notes: as for B1
B14: 3F11-var 16 (antibody, human IgG1, kappa, V domains shown)
VH: B1 VH with G56S, T58V
VL: B1 VL with N33S, L42Q, F60A, V90T
notes: as for B1
B15: 3F11-var 14 (antibody, human IgG1, kappa, V domains shown)
VH: B1 VH
VL: B1 VL with N33S, L42Q, F60A, V90T
notes: as for B1
B16: 3F11-var 8 (antibody, human IgG1, kappa, V domains shown)
VH: B1 VH with G56S, T58V
VL: B1 VL
notes: as for B1

Target: T1, Prostate specific membrane antigen (PSMA) (human, UniProt Q04609 1-750)
T1 construct: whole, on cells; The background says that PSMA is a homodimer when enzymatically active; also called glutamate carboxypeptidase II; GCPII
Assay: flow cytometry on LNCAP cells, FITC anti-human IgG
Experimental: (§1) Pre-confluent LNCAP cells at 80-90% confluence were washed and detached from the plates with trypsin prior to 1-hour incubation at 37° C., 5% CO₂ in the flasks to restore cell surface proteins. Cells were washed and adjusted to 1×10₆ cells/ml in staining media (RPMI-1640, 25 mM HEPES, 3% h.i. FBS and 0.02% sodium azide). Various concentrations of the monoclonal antibody samples (murine wt and 16 humanized variants) ranging from 50 to 0.0032 μg/ml were prepared in staining media and incubated with the cells in pre-cooled 96-well plates for 30 min. on ice to allow antibody binding to the LNCAP cell surface. Subsequently, cells were washed at 4° C. with PBS to remove free antibody, and bound antibody was labelled with FITC goat anti-human IgG H&L preabsorbed (Abcam) secondary antibody for 30 min. on ice. Finally, cells were washed, fixed and FITC fluorescence associated to the antibody bound to the cells was measured by flow cytometry (GUAVA 8HT Cytometer). Data was analyzed using Incyte GuavaSoft 2.7 software (Merck-Millipore). The obtained dose-response data (plotted as log-transformed dose vs. response) typically produced sigmoidal curves with variable slope which were fitted to a 4-parameter logistic dose-response equation using GraphPad Prism software. The EC₅₀ dose, defined as the concentration of antibody that provides half of maximal target cell binding, was used to compare the bioactivity of different antibody variants. Data points represent the average of duplicate wells and standard error of the mean (SEM).

T1 sequence (Q04609 whole entry): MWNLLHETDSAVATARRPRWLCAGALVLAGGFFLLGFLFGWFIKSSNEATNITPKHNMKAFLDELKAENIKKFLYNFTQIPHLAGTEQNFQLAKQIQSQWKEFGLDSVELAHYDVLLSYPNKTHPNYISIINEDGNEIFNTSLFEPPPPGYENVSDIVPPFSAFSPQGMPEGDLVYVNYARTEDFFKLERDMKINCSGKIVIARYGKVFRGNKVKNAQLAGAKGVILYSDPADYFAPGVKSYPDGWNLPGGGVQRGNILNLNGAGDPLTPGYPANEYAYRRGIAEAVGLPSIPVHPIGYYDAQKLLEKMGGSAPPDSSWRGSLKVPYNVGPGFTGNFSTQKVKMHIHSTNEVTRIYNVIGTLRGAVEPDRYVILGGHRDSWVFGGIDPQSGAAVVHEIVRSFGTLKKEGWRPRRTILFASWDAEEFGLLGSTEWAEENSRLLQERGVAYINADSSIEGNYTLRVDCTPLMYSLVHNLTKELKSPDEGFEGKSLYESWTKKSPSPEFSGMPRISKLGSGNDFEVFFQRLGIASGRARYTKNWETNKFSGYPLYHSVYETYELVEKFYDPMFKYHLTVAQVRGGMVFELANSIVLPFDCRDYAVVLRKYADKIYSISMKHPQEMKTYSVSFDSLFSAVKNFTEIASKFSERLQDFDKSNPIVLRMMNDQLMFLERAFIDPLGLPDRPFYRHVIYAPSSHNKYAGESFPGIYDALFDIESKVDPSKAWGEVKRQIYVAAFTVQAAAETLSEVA

EC50 [µg/mL]	Binder
0.219	B1
0.273	B2
0.264	B3
0.178	B4
0.329	B5
0.25	B6
0.29	B7
0.281	B8
0.284	B9
0.339	B10
0.244	B11
0.373	B12
0.304	B13
0.248	B14
0.272	B15
0.204	B16

Target: T1, Prostate specific membrane antigen …
Assay: flow cytometry on LNCAP cells, FITC anti-human IgG
Remark: another data set of the same source
Experimental: as §1

EC50 [µg/mL]	Binder
0.219	B1
0.273	B2
0.264	B3
0.178	B4
0.329	B5
0.25	B6
0.29	B7
0.281	B8
0.284	B9
0.339	B10
0.244	B11
0.373	B12
0.304	B13
0.248	B14
0.272	B15
0.204	B16

— patent US20230250189A1 (HEIDELBERG PHARMA RESEARCH, published 2023)
